Results as given in paper doi:10.1101/2024.11.07.622398.

Assays:
[1] = target: His-GST-tagged bovine UBA7(C597A) (bovine); experiment: BLI
bovine UBA7 (bovine) [2] = target: bovine UBA7 (bovine)
bovine UBA7 (bovine) [3] = experiment: SEC-MALS
[4] = target: His-GST-tagged bovine UBA7(eCCL) (bovine); experiment: BLI
[5] = target: His-GST-tagged UBA7(U1) chimera (bovine | human) (UniProt P22314); experiment: BLI
Sequence of His-GST-tagged UBA7(U1) chimera (bovine | human) (P22314 whole entry, change not shown): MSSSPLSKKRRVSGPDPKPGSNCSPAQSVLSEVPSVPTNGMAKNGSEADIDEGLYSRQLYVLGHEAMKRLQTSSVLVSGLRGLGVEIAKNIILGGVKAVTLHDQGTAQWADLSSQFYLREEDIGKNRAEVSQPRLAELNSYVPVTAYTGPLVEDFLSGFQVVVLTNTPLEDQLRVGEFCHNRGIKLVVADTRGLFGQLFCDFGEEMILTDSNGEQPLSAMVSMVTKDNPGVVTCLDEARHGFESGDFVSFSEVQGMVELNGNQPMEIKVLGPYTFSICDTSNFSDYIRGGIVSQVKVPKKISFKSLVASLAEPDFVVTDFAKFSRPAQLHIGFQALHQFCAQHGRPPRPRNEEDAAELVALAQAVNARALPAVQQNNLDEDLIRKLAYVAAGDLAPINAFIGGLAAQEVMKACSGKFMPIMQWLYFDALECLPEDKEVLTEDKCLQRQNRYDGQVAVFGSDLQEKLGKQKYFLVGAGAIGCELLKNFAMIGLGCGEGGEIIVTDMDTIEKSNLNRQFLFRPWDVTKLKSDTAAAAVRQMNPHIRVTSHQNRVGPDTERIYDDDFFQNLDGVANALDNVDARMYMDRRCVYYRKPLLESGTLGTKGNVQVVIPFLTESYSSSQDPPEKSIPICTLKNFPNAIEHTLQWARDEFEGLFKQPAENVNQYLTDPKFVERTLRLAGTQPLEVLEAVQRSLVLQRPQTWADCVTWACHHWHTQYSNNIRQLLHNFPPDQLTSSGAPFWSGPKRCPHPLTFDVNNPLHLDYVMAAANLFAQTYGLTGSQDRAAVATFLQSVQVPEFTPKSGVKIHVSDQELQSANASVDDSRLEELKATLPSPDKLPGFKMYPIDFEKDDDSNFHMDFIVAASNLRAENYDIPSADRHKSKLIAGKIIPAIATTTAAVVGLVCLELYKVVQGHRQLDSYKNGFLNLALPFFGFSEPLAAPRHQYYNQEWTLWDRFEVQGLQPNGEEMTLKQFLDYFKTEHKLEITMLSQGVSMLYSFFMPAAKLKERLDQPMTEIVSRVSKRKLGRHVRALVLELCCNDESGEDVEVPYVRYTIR

Row | Substance | Kd [1] [µM] | KM of disulfide complex formation (UBA7 titrated with UBE2L6, SDS-PAGE kinetics) (bovine UBA7 (bovine) [2]) [µM] | stoichiometry N (bovine UBA7 (bovine) [3]) | Kd [4] [µM] | Kd [5] [µM]
1 | bovine UBE2L6 (from UniProt A5PJC4 1-153) (enzyme) | 1.2 | 1.3 | 1 |  | 
2 | bovine UBE2L6(C86A) (from UniProt A5PJC4 1-153) (enzyme) |  |  |  | 4 | 48
